Assay results reported in patent US20240425546A1 (NANTONG YICHEN BIOPHARMA, published 2024).

Tests used:
WT hIL-1β [1] = target: T1, WT hIL-1β (human, UniProt P01584 117-269); test: cell-based or functional assay
WT hIL-1β [2] = target: T1, WT hIL-1β; test: competitive ELISA on coated WT hIL-1β; canakinumab diluted in series, competitor E64AK-F4-mFc (100 nM)
E64AK-F4-mFc = target: T2, E64AK-F4-mFc (mouse, UniProt P01863 123-330 = IgG part); test: ELISA, antigen coated
T2 construct: scFv fused to the Fc of mouse IgG2a by a linker; also called E64AK-F4-mFc fusion antibody
T2 sequence (VL, as listed by the source limits assumed, chain 1 of 3): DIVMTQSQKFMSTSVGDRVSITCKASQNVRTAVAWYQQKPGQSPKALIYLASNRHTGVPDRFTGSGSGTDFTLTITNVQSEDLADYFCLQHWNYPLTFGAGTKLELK
T2 sequence (VH, as listed by the source limits assumed, chain 2 of 3): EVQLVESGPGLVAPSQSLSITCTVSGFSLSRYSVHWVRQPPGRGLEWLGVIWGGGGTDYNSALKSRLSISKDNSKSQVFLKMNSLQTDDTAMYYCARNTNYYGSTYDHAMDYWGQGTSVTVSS
T2 sequence (P01863 other isoform, or with tags, fused parts or gaps limits assumed, chain 3 of 3): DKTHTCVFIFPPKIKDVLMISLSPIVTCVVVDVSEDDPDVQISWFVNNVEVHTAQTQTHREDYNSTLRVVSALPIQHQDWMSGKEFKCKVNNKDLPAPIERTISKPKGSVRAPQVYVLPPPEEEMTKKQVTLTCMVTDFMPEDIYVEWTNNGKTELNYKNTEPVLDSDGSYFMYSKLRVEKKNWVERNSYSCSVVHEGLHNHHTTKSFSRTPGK

| Binder | inhibition of IL-1β-induced activation of HEK-Blue IL-1R cells (SEAP), IC50 (WT hIL-1β [1]) [nM] | IC50 (WT hIL-1β [2]) [nM] | binding result (E64AK-F4-mFc) |
| --- | --- | --- | --- |
| Canakinumab (antibody, V domains shown) VH: QVQLVESGGGVVQPGRSLRLSCAASGFTFSVYGMNWVRQAPGKGLEWVAIIWYDGDNQYYADSVKGRFTISRDNSKNTLYLQMNGLRAEDTAVYYCARDLRTGPFDYWGQGTLVTVSS VL: EIVLTQSPDFQSVTPKEKVTITCRASQSIGSSLHWYQQKPDQSPKLLIKYASQSFSGVPSRFSGSGSGTDFTLTINSLEAEDAAAYYCHQSSSLPFTFGPGTKVDIKR | 4.7 | 2.1 |  |
| hIL-1β63-66A (ligand, also called IL-1β mutant containing four alanine mutations; hIL-1βE63-66A) APVRSLNCTLRDSQQKSLVMSGPYELKALHLQGQDMEQQVVFSMSFVQGEESNDKIPVALGLAAAALYLSCVLKDDKPTLQLESVDPKNYPKKKMEKRFVFNKIEINNKLEFESAQFPNWYISTSQAENMPVFLGGTKGGQDITDFTMQFVSS |  |  | no binding |
